From the supplement of paper PMC10724198
± gives the standard deviation of the averaged measurements.

Tests used:
[1] = tested on: Saccharomyces cerevisiae; test: protein stability index of tFT-peptide fusion (C-terminal peptide) (PSI (0-1 scale)); higher = more stable (slower turnover)
Method: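 MPS profiling in S. cerevisiae of the tFT-X12 degron library: putative degron peptides plus stable controls, 12 aa, fused to the C-terminus of a sfGFP-mCherry timer. Cells are FACS-sorted into 8 mCherry/sfGFP bins and deep-sequenced. PSI runs from 0 (unstable) to 1 (stable). Backgrounds are wild type, das1Δ and doa10Δ at 30 °C, and wild type, das1Δ, cdc34-1 and cdc53-1 at 37 °C; 2-3 technical replicates each.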

[2] = tested on: Saccharomyces cerevisiae; test: as above; settings: genetic background: wild type; temperature: 30 C
[3] = genetic background: cdc34-1, temperature: 37 C
[4] = genetic background: cdc53-1, temperature: 37 C
[5] = genetic background: das1 deletion, temperature: 30 C
[6] = genetic background: das1 deletion, temperature: 37 C
[7] = genetic background: doa10 deletion, temperature: 30 C
[8] = genetic background: wild type, temperature: 30 C
[9] = genetic background: wild type, temperature: 37 C
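Note: PSI is a weighted mean of sequencing reads over stability bins, variants kept only with over 10 reads, mCherry proximal and sfGFP distal, peptide attached via GGGS linker.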

| Sequence | protein stability index [1, 3] | protein stability index [1, 4] | protein stability index [1, 5] | protein stability index [1, 6] | protein stability index [1, 7] | protein stability index [1, 8] | protein stability index [1, 9] | protein stability index [2] |
| --- | --- | --- | --- | --- | --- | --- | --- | --- |
| MVAHTVRVKCGI | 0.638 ± 0.049 | 0.66 ± 0.021 | 0.544 ± 0.031 | 0.674 ± 0.0096 | 0.557 ± 0.016 | 0.56 ± 0.056 | 0.6622 ± 0.0012 | 0.547 ± 0.13 |
| PFARIIDILLVI | 0.486 ± 0.022 | 0.5346 ± 0.0045 | 0.404 ± 0.042 | 0.5395 ± 0.00065 | 0.298 ± 0.0017 | 0.315 ± 0.022 | 0.495 ± 0.061 | 0.41 ± 0.026 |
| VVWCLLARVLLV | 0.332 ± 0.017 | 0.4 ± 0.02 | 0.306 ± 0.036 | 0.46657 ± 0.00033 | 0.1578 ± 0.00094 | 0.167 ± 0.019 | 0.243 ± 0.011 | 0.218 ± 0.026 |
| TVRLPLILPCVL | 0.5752 ± 0.0049 | 0.573 ± 0.031 | 0.421 ± 0.028 | 0.5669 ± 0.0053 | 0.414 ± 0.0034 | 0.42 ± 0.025 | 0.55 ± 0.013 | 0.4884 ± 0.0042 |
| VECVCVVVVRRM | 0.391 ± 0.0055 | 0.497 ± 0.03 | 0.313 ± 0.023 | 0.493 ± 0.01 | 0.266 ± 0.0088 | 0.31 ± 0.021 | 0.466 ± 0.021 | 0.351 ± 0.017 |
| WVRIIIKLRASL | 0.444 ± 0.011 | 0.4476 ± 0.0035 | 0.34 ± 0.021 | 0.41 ± 0.0083 | 0.274 ± 0.0048 | 0.253 ± 0.011 | 0.345 ± 0.034 | 0.315 ± 0.041 |
| GFLWFCGVPVGW | 0.695 ± 0.026 | 0.7385 ± 0.0044 | 0.609 ± 0.017 | 0.72 ± 0.027 | 0.613 ± 0.031 | 0.613 ± 0.012 | 0.707 ± 0.018 | 0.571 ± 0.2 |
| IRSRGLLIRWLS | 0.52 ± 0.025 | 0.679 ± 0.023 | 0.616 ± 0.026 | 0.721 ± 0.011 | 0.0894 ± 0.0094 | 0.0994 ± 0.033 | 0.148 ± 0.015 | 0.182 ± 0.015 |
| TWGGGRVSLGVG | 0.313 ± 0.029 | 0.3966 ± 0.0028 | 0.326 ± 0.011 | 0.405 ± 0.018 | 0.3442 ± 0.0015 | 0.359 ± 0.044 | 0.401 ± 0.022 | 0.328 ± 0.016 |
| IDSEVHLWKRSA | 0.618 ± 0.046 | 0.725 ± 0.012 | 0.642 ± 0.017 | 0.719 ± 0.037 | 0.16 ± 0.016 | 0.176 ± 0.027 | 0.405 ± 0.011 | 0.336 ± 0.058 |
| SCFDRQIFVPVC | 0.358 ± 0.0078 | 0.3925 ± 0.001 | 0.302 ± 0.033 | 0.461 ± 0.013 | 0.274 ± 0.0059 | 0.308 ± 0.032 | 0.4173 ± 0.0038 | 0.442 ± 0.013 |
| LICRFLFFVCVG | 0.412 ± 0.024 | 0.451 ± 0.0053 | 0.377 ± 0.023 | 0.507 ± 0.0068 | 0.277 ± 0.011 | 0.278 ± 0.02 | 0.441 ± 0.03 | 0.394 ± 0.04 |
| CFLSWSLRFFIL | 0.387 ± 0.094 | 0.507 ± 0.022 | 0.482 ± 0.031 | 0.554 ± 0.034 | 0.132 ± 0.0019 | 0.118 ± 0.0054 | 0.139 ± 0.013 | 0.206 ± 0.011 |
| VCYLMRSLTFAY | 0.4968 ± 0.0039 | 0.546 ± 0.006 | 0.345 ± 0.029 | 0.494 ± 0.0096 | 0.319 ± 0.021 | 0.337 ± 0.024 | 0.4733 ± 0.0016 | 0.45 ± 0.0099 |
| MLSVVSFVSCTC | 0.181 ± 0.0023 | 0.17 ± 0.021 | 0.197 ± 0.017 | 0.29 ± 0.0063 | 0.1631 ± 0.0015 | 0.191 ± 0.027 | 0.237 ± 0.0063 | 0.255 ± 0.012 |
| YFYIRLGIAYMM | 0.421 ± 0.037 | 0.511 ± 0.056 | 0.436 ± 0.026 | 0.503 ± 0.019 | 0.197 ± 0.013 | 0.206 ± 0.019 | 0.264 ± 0.015 | 0.275 ± 0.027 |
| LDLPFESGIACF | 0.32 ± 0.035 | 0.297 ± 0.0081 | 0.259 ± 0.032 | 0.436 ± 0.027 | 0.209 ± 0.02 | 0.263 ± 0.029 | 0.397 ± 0.015 | 0.361 ± 0.0063 |
| RLFIIYLLNIQG | 0.37 ± 0.052 | 0.5289 ± 0.0034 | 0.311 ± 0.022 | 0.544 ± 0.022 | 0.263 ± 0.0062 | 0.305 ± 0.047 | 0.515 ± 0.022 | 0.407 ± 0.019 |
| GCWRVELLVFMC | 0.0459 ± 0.0044 | 0.205 ± 0.011 | 0.185 ± 0.03 | 0.33 ± 0.015 | 0.053 ± 0.02 | 0.0595 ± 0.017 | 0.0748 ± 0.03 | 0.0681 ± 0.02 |
